Results taken from patent publication US7595173B2, “Low-cost production of peptides” (Dow Global Technologies Inc., priority 2002, dated 2009).

B1: 4A dimer: dimer having two D2A21 antimicrobial peptides connected by the Gly-Asp/Pro cleavage sequence, with leader and His-tag trailer (protein)
chain: MASMTGGQQMGRDPFAKKFAKKFKKFAKKFAKFAFAFGDPFAKKFAKKFKKFAKKFAKFAFAFGDPNSSSVDKLAAALEHHHHHH
modifications: Amino acid sequence of the 4A dimer.
B2: AB4: trimer comprising a leader segment, three AMPs each separated by a tripeptide linker, and a trailer segment (protein)
chain: MASMTGGQQMGRDPFAKKFAKKFKKFAKKFAKFAFAFGDPFAKKFAKKFKKFAKKFAKFAFAFGDPFAKKFAKKFKKFAKKFAKFAFAFGDPSRRSLRKSSRNLPRSLPSSHSRSVIRIRAPSTSLRPHSSTTTTTTEIRLLTKPERKLSWLLPPLSNN
modifications: Amino acid sequence of the AB4 trimer.

Tested on: E. coli strain BL21 (DE3)
Experiment: Antimicrobial activity: dose-dependent inhibition of E. coli growth (standard growth inhibition assay)
Type: cell-based
Protocol: The antimicrobial activity of the cleaved peptides (same samples from Examples 5 and 6) was determined by measuring the dose-dependent inhibition of E. coli growth. The samples were tested for their ability to inhibit the growth of an overnight culture inoculated with E. coli strain BL21 (DE3). AMP samples were diluted serially into water in 96 well plates. Overnight cultures of E. coli BL21 (DE3) cells were diluted 1:50 into LB broth and 250 μl aliquots were transferred into 96-well plates. Each plate was incubated at 37° C. for one hour and then 50 μl of diluted peptide (or water) were added to each well. Each plate was incubated overnight at 37° C. and then the culture density was determined by measuring the apparent absorbance at 600 nm using a Spectromax Plus plate reader.

Row | Molecule | antimicrobial activity (Ni-purified, dialyzed, uncleaved dimer) | antimicrobial activity (after 50% formic acid treatment, 70° C., 24 hours) | antimicrobial activity (water-treated (control), 70° C., 24 hours) | antimicrobial activity of cleaved trimer (digested with formic acid at 60° C.)
1 | B1 | no detectable antimicrobial activity | significant antimicrobial activity | no activity | –
2 | B2 | – | – | – | potent antimicrobial activity
